This passage reports Ki results from article PMC4909209.

Bounds are passed on as bounds.

Test [1] deals with de-tagged Ls-AChBP (Lymnaea stagnalis acetylcholine binding protein) (Lymnaea stagnalis) (UniProt P58154). As to the kind of experiment: radioligand binding.
Test [2] has as its target ubiquitin tagged Ac-AChBP (Aplysia californica acetylcholine binding protein) (Aplysia californica). The test is described as follows: radioligand binding.

With “alpha-conotoxin ImI (from UniProt P50983 5-17) (peptide)”, the Ki in test [1] is over 10 µM; in test [2], 0.003 µM.

alpha-conotoxin LsIA (peptide): the results for the Ki in test [1] and in test [2] were 0.7 µM and 0.011 µM, respectively.

As a reminder, the Ki is a dissociation constant, usually derived from enzyme kinetics or from competition with a known ligand. Higher therefore signals lower affinity.
